Test results taken from patent US20030113828A1, “Compositions and methods for modulating Syk function” (priority 2001, published 2003).
Read-outs that look alike come from different tables or passages of the source. Each block holds one compound with its values, some of them ahead of it. Square brackets hold non-standard residues; d marks the D form. Ends that are not written are not given here. Peptide text beside a SMILES is read from it. pY = N[C@@H](Cc1ccc(OP(=O)(O)O)cc1)C(=O)O

What was measured:
Syk [1] = biological target: T1, Syk (Homo sapiens, UniProt P43405); assay: Syk kinase activation in vitro; assay type: biochemical
Syk(6-370) = Syk(6-370) (Homo sapiens, UniProt P43405); conditions: Ottinger et al. 1998, cited from earlier work
[2] = biological target: T2, binding of Syk(6-370) to the β3 tail (Homo sapiens, UniProt P43405); assay: pITAM peptide competition in direct binding assay; conditions: soluble pITAM peptide 40 μM, 8000-fold molar excess
T2 construct: made in house; host or cells: bacteria (pGEX vector, IPTG induction)
Experimental: To verify that the Syk-β3 interaction is pITAM-independent mechanism, the effect of 8000-fold molar excess of PITAM peptides on binding of Syk(6-370) to the β3 tail was examined. […] Similar data were obtained in a quantitative enzyme-linked immunosorbent assay. The FcεRIγ pITAM peptides were functional, as they activated Syk kinase (EC50 1-2 μM) in vitro (Shiue et al.(1995) J Biol Chem 270:10498-10502). Thus, Syk recognition of β3 involves a unique specificity, distinct from Syk's interaction with pITAMs.
(§1) Following incubation, beads were washed and bound protein was analyzed by immunoblotting.

[3] = biological target: T3, integrin β3 cytoplasmic tail (Homo sapiens, UniProt P05106); assay: Affinity chromatography/direct binding of kinase fragments to integrin tail; conditions: recombinant fragments, direct binding assay
T3 construct: made in house
T3 sequence (P05106 742-788 limits assumed): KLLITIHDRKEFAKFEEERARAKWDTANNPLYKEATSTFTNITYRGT
Experimental: as §1
(§2) For direct binding assays, model peptides (1 mg) were dissolved in 1 ml buffer containing 20 mM Tris (pH 7.9), 500 mM NaCl, and 6 M urea. To this, 50 ul packed His-Bind® Resin (Novagen, Madison, Wis.) was added and the mixture was rotated for 1 hour at room temperature. Immobilized peptides were washed 5× in above buffer without urea, and resuspended in 500 μl buffer containing 20 mM PIPES pH 6.8, 50 mM NaCl, 3 mM MgCl2, 150 mM sucrose, 50 mM NaF, 40 mM Na4P2O7*10H2O (buffer A) supplemented with 0.1% TritonX-100 and 3 mM MgCl2. Purified GST-fusion proteins were added to 0.5 ml buffer A supplemented with 0.1% TritonX-100 and 3 mM MgCl2. Five μl of total packed resin loaded with various integrin cytoplasmic domain model proteins was added to the GST-fusion protein. The mixture was incubated for 40 minutes at room temperature with continuous rotation. The beads were then washed five times in buffer A with 0.1% TritonX-100 and 3 mM MgCl2. Bound proteins were eluted by boiling in reducing sample buffer, fractionated by SDS PAGE, and immuno-blotted.

Zap-70 [4] = assay: Affinity chromatography/direct binding of integrin tail model proteins to Zap-70; design: species or system human; conditions: Zap-70 from cell lysates
Experimental: (§3) A cDNA encoding residues 1-337 of human Zap-70 was cloned into pGEX-2T (Amersham Pharmacia Biotech).
(§4) Model protein mimics of integrin cytoplasmic domains αIIb, β1A, and β3 were prepared in accordance with procedures described by Pfaff et al. (1998) J Biol Chem 273:6104-6109). The β2 integrin cytoplasmic domain model protein was developed by PCR amplification of β2 cDNA using 5′-[…] (SEQ ID NO:7) and 3′-[…] (SEQ ID NO:8) primers. This primer set introduced a 5′ HindIII restriction site into the N-terminal region of the β2 cytoplasmic domain, resulting in the mutation, A725L. The 3′ primer contained a BamHI restriction site immediately downstream of dual stop codons. The PCR product was cloned into pCR2.1 as described in the TA Cloning® system (Invitrogen, Carlsbad, Calif.). After sequencing, pCR2.1-β2cyt was digested with BamHI and HindIII, and subcloned into a modified bacterial expression plasmid pET15bm (lacking the HindIII restriction site). All model proteins were verified by sequence analysis, expressed, HPLC purified and verified by electrospray ionization mass spectroscopy as described by Pfaff et al. ((1998) J Biol Chem 273:6104-6109).
as §1
as §2, with “The beads were then washed five times in buffer A with 0.1% TritonX-100 and 3 mM MgCl2. Bound proteins were eluted by boiling in reducing sample buffer, fractionated by SDS PAGE, and immuno-blotted.” left out

Zap-70 [5] = biological target: T4, Zap-70 (Homo sapiens, UniProt P43403); assay: as above; conditions: recombinant fragment, direct binding
T4 construct: A cDNA encoding residues 1-337 of human Zap-70 was cloned into pGEX-2T; made in house; host or cells: bacteria (pGEX-2T, IPTG induction)
T4 sequence (P43403 1-337): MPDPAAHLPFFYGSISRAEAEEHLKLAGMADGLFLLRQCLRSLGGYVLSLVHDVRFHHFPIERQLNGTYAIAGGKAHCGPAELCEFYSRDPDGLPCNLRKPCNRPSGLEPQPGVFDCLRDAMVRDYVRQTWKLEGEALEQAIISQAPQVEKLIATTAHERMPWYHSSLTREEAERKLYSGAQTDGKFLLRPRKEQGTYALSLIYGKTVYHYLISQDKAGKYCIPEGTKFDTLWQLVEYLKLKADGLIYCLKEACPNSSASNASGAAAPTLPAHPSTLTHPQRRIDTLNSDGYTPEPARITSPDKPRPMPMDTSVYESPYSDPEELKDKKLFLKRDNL
Experimental: as §3, §4, §1
as §2, with “The beads were then washed five times in buffer A with 0.1% TritonX-100 and 3 mM MgCl2. Bound proteins were eluted by boiling in reducing sample buffer, fractionated by SDS PAGE, and immuno-blotted.” left out

Syk [6] = biological target: T1, Syk; assay: Affinity chromatography/direct binding of integrin tail model proteins to Syk; design: made in house; host or cells: bacteria (pGEX vector, IPTG induction)
Experimental: as §4, §1, §2

[7] = biological target: T5, Syk binding to the β3 tail model proteins (Homo sapiens, UniProt P43405); assay: β3 peptide competition in direct binding assay; conditions: peptide 1×10^−4 M, Syk 5×10^−9 M
T5 construct: made in house; host or cells: bacteria (pGEX vector, IPTG induction)
Experimental: Phosphorylation of the β3 integrin cytoplasmic domain occurs as a consequence of integrin engagement (Law et al. (1996) J Biol Chem 271:10811-10815). To determine if phosphorylation of the β3 cytoplasmic domain could affect Syk binding, competition assays were performed using tyrosine phosphorylated or non-phosphorylated peptides in the context of the last 23 amino acids of the β3 cytoplasmic domain. Peptides were used at a concentration 1×10^−4 M, and Syk was used at a concentration of 5×10^−9 M. The non-phosphorylated peptide competed for integrin β3 tail binding to Syk. In three experiments, there was a 52±3.4% decrease in Syk binding to the β3 tail model proteins in the presence of non-phosphorylated β3-23 peptide as compared to the phosphorylated peptide (β3-23P). […] Furthermore, phosphorylation of β3(Y747,759) reduces its capacity to compete for Syk binding to the unphosphorylated β3 tail.
as §2, with “The beads were then washed five times in buffer A with 0.1% TritonX-100 and 3 mM MgCl2. Bound proteins were eluted by boiling in reducing sample buffer, fractionated by SDS PAGE, and immuno-blotted.” left out
For peptide competition assays, peptides were pre-incubated with Syk(6-370) for one hour before direct binding assays were performed. Peptides were used at a concentration of 1×10^−4 M, and Syk(6-370) was used at a concentration of 2×10^−9 M. Bound Syk was detected as described above. […]

[8] = recombinant fragment, direct binding

EC50 (Syk [1]): 1000 to 2000 nM
Compound: CC(C)C[C@H](NC(=O)CNC(=O)[C@@H](NC(=O)[C@H](Cc1ccc(OP(=O)(O)O)cc1)NC(=O)[C@@H](NC(=O)CNC(=O)[C@@H](N)CC(=O)O)C(C)C)[C@@H](C)O)C(=O)N[C@@H](CO)C(=O)N[C@H](C(=O)N[C@@H](CCCNC(=N)N)C(=O)N[C@@H](CC(N)=O)C(=O)N[C@@H](CCC(N)=O)C(=O)N[C@@H](CCC(=O)O)C(=O)N[C@H](C(=O)N[C@@H](Cc1ccc(OP(=O)(O)O)cc1)C(=O)N[C@@H](CCC(=O)O)C(=O)N[C@H](C(=O)N[C@@H](CC(C)C)C(=O)N[C@@H](CCCCN)C(=O)N[C@H](C(=O)N[C@@H](CS)C(=O)N[C@@H](CCCNC(=N)N)C(=O)O)[C@@H](C)O)[C@@H](C)O)[C@@H](C)O)[C@@H](C)O [FcεRIγ ITAM peptide, DGVY(PO3)TGLSTRNQETY(PO3)ETLKTCR (SEQ ID NO:1)] (H-DGV[pY]TGLSTRNQET[pY]ETLKTCR-OH)
Kd (Syk(6-370); read-out: affinity of Syk for the dually phosphorylated FcεRIγ-ITAM): 2.6 nM
Kd (Syk(6-370); reported, read-out: Kd for the interaction between Syk(6-370) and the FcεRIγ pITAM peptide): 2.6 nM

competition with the β3 integrin cytoplasmic tail for binding to Syk(6-370) [2]: failed to compete
Compound: NQLY(PO3)NELNLGRREEY(PO3)DVLV (SEQ ID NO:2) (NQL[pY]NELNLGRREE[pY]DVLV) [dually-phosphorylated TCRξ chain ITAM peptide]

binding to the β3 tail [3]: failed to bind
Compound: Syk(163-270): Syk fragment containing only the C-terminal SH2 domain

binding to the β3 tail [3]: bound
Compound: Syk(R195A): C-terminal SH2 domain mutant of Syk deficient in binding to pITAMs

Compound: Zap-70(1-162): N-terminal SH2 domain of Zap-70 with its intact IA domain
binding to the β3 tail [3]: bound β3 to a similar extent as the tandem SH2 domains

binding to the β3 tail [3]: did not bind
Compound: tandem SH2 domains of SHP-2: tandem SH2 domains of SHP-2

binding of Zap-70 to integrin tail model protein (Zap-70 [4]): no detectable binding
binding of Zap-70 to integrin tail model protein (Zap-70 [5]): No binding was detected
binding of Syk to integrin tail model protein (Syk [6]; Syk from cell lysates): no detectable binding
binding of Syk to integrin tail model protein (Syk [6]; [8]): No binding was detected
Compound: αIIb tail: αIIb integrin cytoplasmic tail model protein (KVGFFKRNRPPLEEDDEEGE; not fully specified)

binding of Syk to integrin tail model protein (Syk [6]; [8]): abolished
Compound: β3(759X): β3 tail with deletion of the last 4 C-terminal residues (KLLITIHDRKEFAKFEEERARAKWDTANNPLYKEATSTFTNIT; not fully specified)

competition for integrin β3 tail binding to Syk [7]: competed
decrease in Syk binding to the β3 tail model proteins ([7]; three experiments, compared to the phosphorylated peptide (β3-23P)): 52±3.4%
Compound: β3-23 peptide: non-phosphorylated peptide of the last 23 amino acids of the β3 cytoplasmic domain (DTANNPLYKEATSTFTNITYRGT)

competition for integrin β3 tail binding to Syk [7]: did not detectably compete
Compound: β3-23P: tyrosine phosphorylated peptide of the last 23 amino acids of the β3 cytoplasmic domain (DTANNPLYKEATSTFTNITYRGT; also: tyrosine phosphorylated, site not given here) [reference compound]

binding of Zap-70 to integrin tail model protein (Zap-70 [4]): bound
binding of Syk to integrin tail model protein (Syk [6]; Syk from cell lysates): bound
Compound: β3: recombinant model protein mimic of dimerized integrin β3 cytoplasmic tail (KLLITIHDRKEFAKFEEERARAKWDTANNPLYKEATSTFTNITYRGT; also: dimerised via Fc or GST (left off))

binding of Syk to integrin tail model protein (Syk [6]; [8]): abolished
Compound: β3752X: β3 tail with removal of 11 C-terminal residues Thr752-Thr762 (KLLITIHDRKEFAKFEEERARAKWDTANNPLYKEAT; not fully specified)
